According to patent publication US20020122799A1 (published 2002):

Columns and labels:
macrophage (MP) RAGE = target: T1, macrophage (MP) RAGE; test: binding to macrophages in culture wells
T1 construct: whole, on cells; also called RAGE on macrophages

mutant human RAGE (82S) [1] = target: T2, mutant human RAGE (82S) (human, UniProt Q15109 23-404); test: radioligand binding to stably transfected CHO cells expressing human RAGE (82S), Klotz-Hunston fit
T2 construct: whole, on cells; Position 82 counts on the precursor with leader; also called RAGE (G82S); RAGE (S82S)
T2 sequence (Q15109 other isoform, or with tags, fused parts or gaps mutant): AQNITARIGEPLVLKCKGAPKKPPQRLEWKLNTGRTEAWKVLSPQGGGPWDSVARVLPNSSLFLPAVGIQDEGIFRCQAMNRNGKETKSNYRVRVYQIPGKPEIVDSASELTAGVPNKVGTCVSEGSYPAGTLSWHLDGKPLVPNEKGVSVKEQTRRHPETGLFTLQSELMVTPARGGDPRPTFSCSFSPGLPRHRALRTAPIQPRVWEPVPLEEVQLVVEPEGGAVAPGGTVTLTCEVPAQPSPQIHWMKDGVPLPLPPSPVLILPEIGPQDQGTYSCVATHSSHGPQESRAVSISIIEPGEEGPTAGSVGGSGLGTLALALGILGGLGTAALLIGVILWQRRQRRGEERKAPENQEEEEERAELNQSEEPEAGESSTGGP
Procedure: (§1) FIG. 11A. Immunoblotting. Lysates of stably-transfected CHO cells were prepared and subjected to immunoblotting using anti-human RAGE IgG (2 μg/ml). FIGS. 11B-C. Radioligand binding assays. Purified EN-RAGE was radiolabelled using ¹²⁵-I and radioligand binding assays were performed in 96-well tissue culture dishes containing the indicated transfected CHO cells. Assays were performed in the presence of the indicated concentration of radiolabelled EN-RAGE±an 50-fold molar excess of unlabeled EN-RAGE. Elution of bound material was performed in a solution containing heparin. Equilibrium binding data were analyzed according to the equation of Klotz and Hunston. Where indicated, pretreatment with either antibodies (70 μg/ml), human soluble RAGE or bovine serum albumin (50-fold molar excess) was performed. The mean±standard deviation (SD) is shown. In FIG. 11C, * indicates p<0.01 versus respective controls. FIG. 11D. Activation of p44/p42 MAP kinases. The indicated stably-transfected CHO cells were incubated with EN-RAGE, 10 μg/ml, for one hr. Cell lysates were subjected to SDS-PAGE and transfer of the gels' contents to nitrocellulose. Immunblotting was performed using anti-phosphorylated p44/p42 MAP kinase (1 μg/ml). […] In FIGS. 11D-11E, bands were scanned into a densitometer, and band density was quantified using ImageQuant. […]

[2] = target: T3, wild-type human RAGE (Receptor for Advanced Glycation Endproducts) (human, UniProt Q15109 23-404); test: radioligand binding to stably transfected CHO cells expressing wild-type human RAGE, Klotz-Hunston fit
T3 construct: whole, on cells; also called Receptor for AGE; wild-type RAGE (Gly82)
T3 sequence (Q15109 23-404): as the sequence (Q15109 other isoform, or with tags, fused parts or gaps mutant) above, with S60G counted along it
Procedure: as §1

immobilized RAGE = immobilized RAGE (Homo sapiens (Human), UniProt Q15109 23-342); test: binding to RAGE immobilized in culture wells
Chain of immobilized RAGE (Q15109 23-342 limits assumed, form in doubt): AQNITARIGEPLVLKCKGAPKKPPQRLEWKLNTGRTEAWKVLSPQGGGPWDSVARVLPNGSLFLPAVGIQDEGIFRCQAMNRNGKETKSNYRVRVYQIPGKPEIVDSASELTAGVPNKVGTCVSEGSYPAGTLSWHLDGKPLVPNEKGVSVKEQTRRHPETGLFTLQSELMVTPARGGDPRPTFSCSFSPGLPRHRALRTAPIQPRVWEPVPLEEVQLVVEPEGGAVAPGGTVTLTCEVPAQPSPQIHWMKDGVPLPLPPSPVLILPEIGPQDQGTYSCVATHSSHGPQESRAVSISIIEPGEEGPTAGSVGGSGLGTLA

[3] = target: T3, wild-type human RAGE (Receptor for …); test: cell-based or functional assay
mutant human RAGE (82S) [4] = target: T2, mutant human RAGE (82S); test: cell-based or functional assay
[5] = target: T3, wild-type human RAGE (Receptor for …); test: binding to endothelial cells in culture wells

B1: EN-RAGE (Extracellular Novel RAGE binding protein) (ligand, bovine, UniProt P79105 2-92, looked up)
chain: TKLEDHLEGIINIFHQYSVRVGHFDTLNKRELKQLITKELPKTLQNTKDQPTIDKIFQDLDADKDGAVSFEEFVVLVSRVLKTAHIDIHKE
modifications: radiolabelled with 125-I (Iodobeads) in the radioligand binding assays
notes: mature; also called S100A12
Kd (macrophage (MP) RAGE): ~75 nM | Kd (mutant human RAGE (82S) [1]): ~77 nM | Kd [2]: ~122 nM | Kd (immobilized RAGE): ~75 nM | MMP-9 activity (zymography) of human MPs [3]: ~2.3 fold | NF-kB nuclear binding activity (EMSA) in CHO transfectants [3]: ~5.4 fold | activation of p44/p42 MAP kinases in human MPs [3]: ~2.2 fold | adhesion of Molt-4 cells to cultured ECs [3]: 7 fold | expression of cell-surface VCAM-1 on cultured ECs [3]: 4.3 fold | generation of IL-6 by human MPs [3]: ~1.5 fold | generation of TNF-alpha by human MPs [3]: ~4 fold | phosphorylated p44/42 MAP kinases in CHO transfectants [3]: ~2 fold | IL-6, mutant RAGE against wild-type MPs (mutant human RAGE (82S) [4]): ~7.3 fold | MMP-9 activity (zymography) of human MPs (mutant human RAGE (82S) [4]): ~4.7 fold | MMP-9 activity, mutant RAGE allele against wild-type receptor MPs (mutant human RAGE (82S) [4]): ~2 fold | NF-kB gel shift band (EMSA) in CHO transfectants (mutant human RAGE (82S) [4]): ~11.3 fold | NF-κB activation, mutant against wild-type receptor (mutant human RAGE (82S) [4]): ~2.1 fold | TNF-alpha, RAGE (G82S)/(S82S) against wild-type RAGE MPs (mutant human RAGE (82S) [4]): ~4.5 fold | elaborated TNF-alpha by human MPs (mutant human RAGE (82S) [4]): ~17.8 fold | generation of IL-6 by human MPs (mutant human RAGE (82S) [4]): ~10.9 fold | phosphorylated p44/42 MAP kinases in CHO transfectants (mutant human RAGE (82S) [4]): ~3.9 fold | phosphorylated p44 and p42 MAP kinases in human MPs (mutant human RAGE (82S) [4]): ~4.8 fold | Kd [5]: ~75 nM
